Assay results from article PMC5147519.

Biological target: K18 WT tau (tau four-repeat domain), poly-histidine tag intact (human)
Assay: SDS-PAGE and Western blot (SDS-resistant dimers and aggregates); soluble and pellet fractions of IPTG-induced E. coli, 15% Tris-glycine SDS-PAGE, blot with polyclonal anti-human tau A0024

In the case of “K18 WT tau (tau four-repeat domain), poly-histidine tag intact (domain or fragment)”, the stoichiometry N is reported as 2.
